Experiment [1] has as its target Hsp90 in rabbit reticulocyte lysate (Hsp90 heterocomplex) (rabbit) (UniProt P30947). Description: reticulocyte lysate with 35S-labeled GR, with or without CHIP, immunoprecipitation of Hsp90 with 3G3; displaced molecule: GR.
Experiment [2] has the same target. Description: rabbit reticulocyte lysate with recombinant CHIP, immunoprecipitation of Hsp90 with 3G3, Western blot; displaced molecule: Hop.

Sequence of Hsp90 in rabbit reticulocyte lysate (Hsp90 heterocomplex) (rabbit) (P30947 2-726, one chain of several): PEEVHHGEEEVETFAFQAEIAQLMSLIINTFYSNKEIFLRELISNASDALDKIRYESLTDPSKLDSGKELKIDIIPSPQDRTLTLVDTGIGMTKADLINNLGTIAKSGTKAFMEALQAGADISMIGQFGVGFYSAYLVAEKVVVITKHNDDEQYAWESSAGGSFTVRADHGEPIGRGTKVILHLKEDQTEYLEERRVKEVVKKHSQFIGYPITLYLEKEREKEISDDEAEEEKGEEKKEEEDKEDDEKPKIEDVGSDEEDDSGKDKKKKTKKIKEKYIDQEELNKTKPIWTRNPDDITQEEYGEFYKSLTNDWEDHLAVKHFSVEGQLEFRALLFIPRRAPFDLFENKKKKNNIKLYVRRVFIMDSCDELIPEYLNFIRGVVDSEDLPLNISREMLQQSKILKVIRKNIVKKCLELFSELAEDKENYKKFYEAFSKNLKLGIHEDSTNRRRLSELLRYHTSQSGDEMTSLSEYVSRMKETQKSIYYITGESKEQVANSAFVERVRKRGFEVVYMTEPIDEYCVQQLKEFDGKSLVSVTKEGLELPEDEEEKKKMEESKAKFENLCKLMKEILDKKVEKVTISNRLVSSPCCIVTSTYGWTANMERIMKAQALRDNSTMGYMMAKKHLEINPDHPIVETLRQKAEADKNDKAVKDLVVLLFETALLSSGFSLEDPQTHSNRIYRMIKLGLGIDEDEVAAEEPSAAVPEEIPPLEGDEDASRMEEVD

With “Recombinant hCHIP (His-tagged fusion from plasmid pET-hCHIP, expressed in E. coli BL21) (from UniProt Q9UNE7 1-303)”, the decrease of GR co-precipitated with Hsp90 in experiment [1] was 50%. Moreover, the decrease of the amount of Hop associated with the Hsp90 complex in experiment [2] was found to be 50%.

The values are drawn from US7094873.
